Assay results published in the domain aggregation screens of Martell et al. (2025).

Assay: soluble fraction after stress (log2 fold change); higher = more stays soluble; pooled small domains, quantitative proteomics
Conditions: stress: 50 degC
How it was run: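 Pooled custom libraries of small protein domains were each held under stress at 50°C. The read-out, high-throughput quantitative proteomics, tracked how much of each protein stayed soluble. This is reported as a base-two log fold change used to indicate aggregation propensity. Higher values mean more protein remains in solution.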

| Sequence | soluble fraction (log2) |
| --- | --- |
| HMIDLPEAFIQQLKEAVDVGDVTGLRELLGQLRRRYPQQSALSDEAERLLREFDFERLAQLFEGLD | -1.42 |
| HMPVGSIGERLKALRLKAGLTQEEVGQHVHISKQTLYKYENGIVTNIPADKIELLATIYSVTPAYIMGWA | -0.875 |
| HMNIEANLEDILRRAMPSAAKLILENSLNINKIIGTGKEGRITKGDVLLYLKDKNLILENILN | -0.173 |
| HMTAPELSVGDYLEYRGKEYKVESLDMDGFITLTDTALEDAPRLISRVTFLTDEFIRSGEYMVIT | -0.169 |
| HMGQVEVPDVVGMTQERAITTLTEAKLVAQIQLTPADVAKGLVAAQSPRAGLKIGEGSFVTIEVSTGPVI | 0.0948 |
| HMSGALDTVVGIRMLKLLSTPIEKSKAFQVGIINKDGKKLRDPTSGERQHYTFLNRFVFKVQYALMRS | -0.211 |
| HMAEPSTSYTQFMDQAKEGKIKRVDVQGRTLTVTPTEGATYKITAPGDLWMVEDLRKAGVQVYGQP | 0.207 |
| HMEMNPLDIQNKAAELAQQWLQLPVGERQKQMAAVRTSNPNLHAMAKQKMEEMRSQAESQGRQSLSQP | 0.0359 |
| HMKTEVNITPGIIDWIERYVQTDKISSSMTEDFQHWKSGTKKPTFNQVEAFSKAINVPLGYFFLKTPPAE | -0.302 |
| HMSFPQVELNTNKGRIVLELNSEKAPKTVANFLEYVRDGFYDGVIFHRVIDGFMIQGGGFDENFKEKA | -0.229 |
| HMREYEKAVDYVRRMISSGSLNVGDRLPTERELSLELDISRNSTREAMRMLENMGIIVSRHGSGNYISGN | -0.594 |
| HMYPDNEQTLSKLAFEFFKKRNIPISQSNINQIVTKSLGDRENLYNELLKIENFSTSGKKLTDNVIKKLIN | 0.00831 |
| HMQESVTVSAQALRRLLEKGDGDAALLYLALLRHHGTIQPRALAGELRWERPRIEAAEEALRQMGLIA | -0.0318 |
| HMATARPPPPPESRVEVLFDGRWYAGTVVGGALDEHRATVFFDADRLSQVINFAETGIRVLGT | -0.0673 |
| HMPTEAIVLQQIQIRQSPSGNSKSLQQILPGAKIKITSESSVKGWKQVSLDGGQKGWIPTAAIGL | -0.0262 |
| HMSPLQLGNYNTLRITRFTDHGAYLDGGDVGEILMPKTYVLPEMKPGDEVRVFVYLDQEERLVGTTET | -0.017 |
| HMNTPHLTPREREVLKGIVDGLINKEIAARMGVSVATVITHRNNLTEKLGTRSVSALTIFAVMHGIVR | -2.49 |
| HMQSAMALTKDLIEQQGKYYHRGQPFTGVGFAKNKKGKFVTEEPFKNGLLHGKRVNYDHNGHVLAREK | 0.264 |
| HMFVVVPDLIGKTINQFEEDLSELNLKYVVSDSGNFNPEFKINAVLDQSPKANSKVKDGRKIYLTLNAS | -0.432 |
| HMKKIDVEVVRSQLIAWMADNGKSQAEVSKSMGISASALSMFIKGTYTGDNEQIGRKAAALMDLVHRQSA | 0.0121 |
| HMTNADRYIGQEATVTEKISNELSTGAVRIGGLVWTARTVDNSEAEEGERVTVEAIEGAKLLVKRR | -0.0108 |
| HMSELSEVIEKTFEELPEELKLIVKLREIDDLSYDEISNKIGIPIGTVRSRLHRAREILINIIKN | -1.55 |
| HMSNMWVWSKLSGIQWMDAWEDRFHGNPNTVITRLKTNKTVRVEVYTETEQEALDIKKLFGGSIRKLV | -2.96 |
| HMSISEFNYTEFNGLVEKGQVSEVTISGREIEGRLTSGESFKTYSPETDNSALVGDLLKNNVKINGKP | 0.12 |
| HMTLGQHIQALRKEAGYSQEALGEALGVTRQSISKWESDQAIPEVDKLVTLSRLFQVPVGVLLQVEQP | -0.16 |
| HMDDGARQLVDQLNRLIANPAVSARIIHGYLILEGRVESEWEKTRTLLLAQVAGLPVIDLITVS | -1.85 |
| HMTKTFDSPEDADNDVLAKTLFQIFGVQSVYLKENFVTITKSNSVGWHTLMEKTGHTLEEHLKF | 0.0987 |
| HMGDTIGEQKAKEIALEHAGLKSSDVTFIRAVLEYDDRNWEYDVEFYDADTYTEYDYEIDAHTGKILSFDH | 0.0993 |

| Sequence | soluble fraction (log2) |
| --- | --- |
| HMSVSTGTITGSVVNLREEPNTSSKVLDKLPKDTVVYVLSASGEWYNVSYGDKTGWVYGEYLA | -0.163 |
| HMKQMNETQQKAFEIYLDSATFETDYKPISEEQLAAKLDALGLKGSSSSINRWKKDFNWAQALQNKVTLAM | -0.11 |
| HMENTIESLLKAKGFNDIIVTVSDKQVDVVVSDKEIADNKRAQIEDVIKRKTGLEASAITITPA | 0.0688 |
| HMPYHSEAWHKVMKSHWLTLSREEAYMHEGRTGASTINIVFQRELGREATQEEIESIYQEKSVLFNSYP | -1.46 |
| HMVTDTGAIEKVIDEVIAANPKQVQEIADQRAAGHEKPKTLGWLVGQIMKASGGKVNPAAVNEILLKKLG | 0.149 |
| HMAIELTPRQLDIIELVRKHAPITGEQIAELLGVTRPSIRSDLGLLVMLGYIDAKPKVGYFAGPRM | -0.597 |
| HMIEIKNLSFSYGKKKQSVFNDFSLTLDKGSVYGLLGKNGTGKSTLLYLMTGLLRPQAGQVLYKGVDVS | 0.0827 |
| HMTTTPTSQMVTELRSRGWTLRALAQRLGVGHASINRWANGVTPDRDLVAALRALVASGEVP | -0.216 |
| HMGDTPVDFSEFIRWVDTGVVDRVELTGNEIVGTSSSGERFSTYAPPQYEGLGNKLIERDIVVVATAA | -0.164 |
| HMEGTEVTTEPPGAQIEFDGKQFGPTPTRVPGLAAGKQFRITLAGYQEAKPKLKNNPKEGEPLSFTLTAI | 0.406 |
| HMLSDEDMMELAIIENLQRENLNPIEEARAYESLIDKGFTHTEIADKMGKSRPYISNSIRLLSL | 0.162 |
| HMYPFSEETLKEKIREYLKTNRSINRRVLEREFYIRKQTALNWLNRLVDSGFLIKEGVRNSPVYFLAE | -0.691 |
| HMIKKLDIEPIIKSVVDDFNNIYKLKRGITISYLNDGKNKYFINGIENRIEQIIANLLDNSISFSEDNKDV | 0.0041 |
| HMGTVVKRNALVHAWTEFNGGRASTKLLALGPGKVGEWIELENPQSGRKLRGEVQVDGSVRLG | 0.11 |
| HMETYEFNITDKEQTGMRVDKLLPELNSDWSRNQIQDWIKAGLVVANDKVVKSNYKVKLNDHIVVTEKEV | 0.26 |
| HMTGELEVTAAGLSPEKLLNLAAKNHITLSNVKRLSYTQLSFRIGPADYNRLKKLLPEGRYKLNVGSS | -0.289 |
| HMGVGVPVTLLLEKLGEDTLSAQQIMERLGLKSRASFRKVYLVPALEQKLIEMEFPDKPNSSKQRYRR | -0.853 |
| HMNPTTQIQYNLPKSEFVSIYIYDLIGNRVKSLINNYQDAGYKSVYWDAMNDLGQPVSAGMYIY | -0.134 |
| HMEALTPREREVLTLMGQGRSNAEIATLLSIAPRTAKVHVQNILSKLGATNRTEAVSLAVRQGLIS | 0.301 |
| HMDAVTPVLSRIRDARFKRMVLPGDEIEISVTLIDTIGKFFNLSGQIRNKDKISLTVNFALALV | -0.0104 |
| HMDSKYLRIFSTLIDEMEKMSPGEQLQSERELSQRFQVSPMTVRRALHKLSTEGYTSAIPGKGTFVRK | -0.307 |
| HMDEFQLTPREQEILGLLVKGYTYKRIASELNLSYATVNRHVSNVYVKLRVHSVNEAVALAVRKGL | -0.997 |
| HMHVSLSGKIHSELRKLILNGELKAGERLPSEPDLAHELGVSRNSLREAIGLLQREGLLLKKHGIGTFVTD | -0.829 |
| HMLYETLKKGDQGTSVKTLQEKLKALGYLTGAADGKYGAGTETAVKSFQKAAGLTETGTADPETLSAVYAA | 0.17 |
| HMTVPNVVGQRILAAQDILKNLGLKVLVDTNLPNSQWGLRNVKSTNPGAGAVVRVGDTVTLIAR | 0.0114 |
| HMVRTIKILGIKHNINLYYKNVKVPTMNVKNQTLEIILPNKYKKFQEEQILKVLTQKLYDKIAETEIEKIK | -0.465 |
| HMRKLTDRQRQILDLIKTIIAETGAPPTRAEISTALGFKSANAAQEHLQALAQKGMIDLVSGASRGIRLRG | -0.379 |
